According to patent US20230127123A1 (Dana-Farber, published 2023):

target: PD-L1 (antigen of the kinetic measurements) (human, UniProt Q9NZQ7); experiment: kinetic measurements for aPDL1 antibodies; instrument and antigen format not stated
Sequence (Q9NZQ7 19-238 limits assumed): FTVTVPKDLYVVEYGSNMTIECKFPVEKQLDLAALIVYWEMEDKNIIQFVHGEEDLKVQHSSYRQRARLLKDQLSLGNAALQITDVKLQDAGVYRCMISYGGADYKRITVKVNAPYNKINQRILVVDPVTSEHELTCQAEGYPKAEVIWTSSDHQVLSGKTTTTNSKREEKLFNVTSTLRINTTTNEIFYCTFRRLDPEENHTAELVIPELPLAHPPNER

Kd [nM]	koff [s⁻¹]	kon [M⁻¹ s⁻¹]	Binder
913	0.0113	12400	1A6 (antibody, V domains shown, anti-PD-L1 clone; also called Ab 1A6) VH: QVQLVQSGGEVKKPGASVKVSCKASGYTLSSHGITWVRQAPGQGLEWMGWISAHNGHASNAQKVEDRVTMTTDTSTNTAYMELRSLTADDTAVYYCARVHAALYYGMDVWGQGTLVTVSS VL: QSVLTQPPSVSVAPGQTARITCGGNNIGSKGVHWYQQKPGQAPVLVVYDDSDRPSGIPERFSGSNSGNTATLTISRVEAGDEADYYCQVWDSSSDHWVFGGGTKLTVL
8.98	0.00884	984000	1E1. (antibody, V domains shown, anti-PD-L1 clone; also called Ab 1E1) VH: QVQLVQSGVEMKKPGASVRVSCKGSGYTFSSYGISWVRQAPGQGLEWMGWISAHNGHASNAQKLEDRVTMTTDTSTNTAYMELRSLTSDDTAVYYCARVHGALYYGMDVWGQGTTVTVSS VL: SYELTQPPSVSVAPGQTARIPCGANNIGGKSVHWYQQKPGQAPVLVVYDDRDRPSGIPERFSGSNSGNTATLTISRVEAGDEADYYCQVWDSSSDHWVFGGGTKLTVL
0.609	0.000745	1.22e+06	1D1 (antibody, V domains shown, anti-PD-L1 clone; also called Ab 1D1) VH: QVQLVQSGAEVKKPGASVKVSCKASGYTFTSYGISWVRQAPGQGLEWMGWISAYNGHASNAQKVEDRVTMTTDTSTNTAYMELRNLTTDDTAVYYCARVHAALYYGMDVWGQGTTVTVSS VL: SYELTQPPSVSVAPGQTARITCGGDNIGSKGVHWYQQTPGQAPVLVVYDDSDRPSGIPERFSGSKSGNTATLTISRVEAGDEADYYCQVWDSRSDHWVFGGGTRVTVL
1.91	–	–	14C61 (antibody, V domains shown, anti-PD-L1 clone; also called Ab 14C61) VH: EVQLVQSGGEVKKPGASVKVSCKASGYTLSSHGITWVRQAPGQGLEWMGWISAHNGHASNAQKVEDRVTMTTDTSTNTAYMELRSLTPDDTAVYYCARVHAALYYGMDVWGQGTLVTVSS VL: SYELTQPPSVSVAPRQTAKITCTRDNIESRSVNWYQQRAGQAPAVIVYDDTERPSGITVRYSGSNSGNTATLTISRVEAGDEADYYCQVWDSSGDLWVFGGGTKLTVL
41.6	0.01	241000	1C6 (antibody, V domains shown, anti-PD-L1 clone; also called Ab 1C6) VH: QVQLVQSGGEVKKPGASVKVSCKASGYTLSSHGITWVRQAPGQGLEWMGWISAHNGHASNAQKVEDRVTMTTDTSTNTAYMELRSLTPDDTAVYYCARVHAALYYGMDVWGQGTLVTVSS VL: LPVLTQPPSVSVAPGQTARITCGGNNIGSKSVHWYQQKPGQAPVLVVYDDSDRPSGIPERFSGSNSGNTATLTINRVEAGDEADYYCQVWDSSSDHWVFGGGTKLTVL
0.679	–	–	1A2 (antibody, V domains shown, anti-PD-L1 clone; also called Ab 1A2) VH: QVQLVQSGGEVKKPGASVKVSCKASGYTLSSHGITWVRQAPGQGLEWMGWISAHNGHASNAQKVEDRVTMTTDTSTNTAYMELRSLTADDTAVYYCARVHAALYYGMDVWGQGTTVTVSS VL: QSVLTQPPSVSVAPGQTARITCGGNNIGSKGVHWYQQKPGQAPVLVVYDDSDRPSGIPERFSGSNSGNTATLTISRVEAGDEADYYCQVWDSSSDHWVFGGGTKLTVL
0.461	0.000338	733000	1F1 (antibody, V domains shown, anti-PD-L1 clone; also called Ab 1F1) VH: QVQLVQSGGEVKKPGASVKVSCKASGYTLSSHGITWVRQAPGQGLEWMGWISAHNGHASNAQKVEDRVTMTTDTSTNTAYMELRSLTPDDTAVYYCARVHAALYYGMDVWGQGTLVTVSS VL: QPVLTQPPSVSVAPGQTARITCGGDNIGSKGVHWLQQKPGQAPVLVVYDDRDRPSGIPERFSGSNSGSTATLTISRVEAGDEADYYCQVWDSSSDHWVFGGGTKLTVL
873	0.0115	13100	1A3 (antibody, V domains shown, anti-PD-L1 clone; also called Ab 1A3) VH: EVQLVQSGAEVKKPGASVKVSCKASGYTLSSHGITWVRQAPGQGLEWMGWISAHNGHASNAQKVEDRVTMTTDTSTNTAYMELRSLTPDDTAVYYCARVHAALYYGMDVWGQGTLVTVSS VL: LPVLTQPPSVSVAPGQTARITCGGNNIGSKSVHWYQQKPGQAPVLVVYDDSDRPSGIPERFSGSNSGNTATLTISRVEAGDEADYYCQVWDSSSDHWVFGGGTKLTVL
0.989	0.00133	1.35e+06	1D2 (antibody, V domains shown, anti-PD-L1 clone; also called Ab 1D2) VH: QVQLVQSGAEVKKPGSSVKVSCKASGGTFSSYAISWVRQAPGQGLEWMGGIIPIFGTANYAQKFQGRVTITADESTSTAYMELSSLRSEDTAVYYCARDGSGYDSAGMDDWGQGTLVTVSS VL: QPGLTQPPSASGTPGQTVTISCSGSRSNIGSNYVYWYQQFPGTAPKLLIFSNNQRPSGVPDRFSGSKSGTSASLAISGLRSEDEADYYCAVWDDSLSGVVFGGGTKLTVL
0.669	0.00124	1.85e+06	1B4 (antibody, V domains shown, anti-PD-L1 clone; also called Ab 1B4) VH: QVQLVQSGGGLVKPGGSLRLSCVGSDFAFSSAWMNWVRQAPGKGLEWVGRIKSKTDGETTDYAAPVKDRFIISRDDSKNTLYLEMNSLKTEDTGVYYCTTGGLGLVYPYYNYIDVWGEGTTVTVSS VL: LPVLTQPPSASGTPGQRVTISCSGSSSNIGSNYVYWYQQLPGTAPKLLIYRNNQRPSGVPDRFSGSKSGTSASLAISGLRSEDEADYYCAAWDDSLNGLVFGTGTRVTVL
1.23	0.000987	802000	1C1 (antibody, V domains shown, anti-PD-L1 clone; also called Ab 1C1) VH: QVQLVQSGAEVKKPGASVKVSCKASGYTFTSYGISWVRQAPGQGLEWMGWTSPHNGLTAFAQILEGRVTMTTDTSTNTAYMELRNLTFDDTAVYFCAKVHPVFSYALDVWGQGTLVTVSS VL: NFMLTQPHSVSESPGKTVTISCTRSSGSIASNYVQWYQQRPGSSPTTVIYEDNQRPSGVPDRFSGSIDTSSNSASLTISGLKTKDEADYYCQSYDGITVIFGGGTKLTVL
1.03	–	–	1D4 (antibody, V domains shown, anti-PD-L1 clone; also called Ab 1D4) VH: QVQLVQSGGGVVQPGRSLRLSCAASGFTFSSYAIHWVRQAPGKGLEWITTISYDGSNKYYADSVKGRFTISRDNPKNTLYLQMNSLRAEDTAVYYCARGFGGPDYWGQGTLVTVSS VL: LPVLTQPSSLSASPGASASLTCTLRSGINVGTYRIYWYQQKPGSPPQYLLRYKSDSDKQQGSGVPSRFSGSKDASANAGILLISGLQSEDEADYYCMIWHSSAYVFGTGTKVTVL
0.287	0.000367	1.28e+06	1H5 (antibody, V domains shown, anti-PD-L1 clone; also called Ab 1H5) VH: QVQLVQSGAEVKKPGSSVKVSCKASGGTFSRYALTWVRQAPGQGLEWMGGIIPIFGRANYAQKFQGRVTITADKSTSTAYMELGSLTSDDTAVYYCAEEGAFNSLAIWGQGTMVTVSS VL: NFMLTQPHSVSGSPGETVTISCTRSSGSIASHFVQWYQQRPGSSPTTVIFGDDQRPSGVPDRISGSIDTSSNSASLSISGLKTEDEADYYCQSYDSSNHVVFGGGTKLTVL
1.16	–	–	1C4 (antibody, V domains shown, anti-PD-L1 clone; also called Ab 1C4) VH: QVQLVQSGAEVKKPGSSVKVSCKASGGTFSRYALTWVRQAPGQGLEWMGGIIPIFGRANYAQKFQGRVTITADKSTSTAYMELGSLTSDDTAVYYCAEEGAFNSLAIWGQGTMVTVSS VL: NFMLTQPHSVSESPGKTVTISCTRSSGSIASNYVQWYQQRPGSAPTTVIFADNQRPSGVPARFSGSIDSSSNSASLTISGLKTEDEADYYCQSYDSSNHWVFGGGTQLTVL
1.57	–	–	1H2 (antibody, V domains shown, anti-PD-L1 clone; also called Ab 1H2) VH: QVQLVQSGGGLVKPGGSLRLSCAASGFTFSSYSMNWVRQAPGKGLVWISRIISDGSATTYADSVKGRFTISRDNAKNTLYLQMNSLRAEDTGVYYCARDRSEGGFDPWGQGTLVTVSS VL: SSELTQDPAVSVALGQTVRITCQGDSLRSYYASWYQQKPGQAPVLVIYGKNNRPSGIPDRFSGSTSGNTASLTITGAQAEDEADYYCNSRDISDNQWQWIFGGGTKLAVL
0.878	–	–	1G1 (antibody, V domains shown, anti-PD-L1 clone; also called Ab 1G1) VH: EVQLVQSGAEVKKPGSSVRVSCKASGGTFSSYAISWVRQAPGQGLEWMGRIIPILGIANYAQKFQGRVTITADKSTSTAYMELSSLRSEDTAVYYCASGSIVGAAYAFDIWGQGTTVTVSS VL: QSVLTQPPSVSVAPGKAANLNCGGKNIGGRVVHWYQQRPGQAPVLVIYDDTDRPSGIPERFSGSNSGNTATLTITDVEVGDEADYYCQVWDSRSDHPVFGGGTTLTVL

target: T1, PD-L1 (on 293T cells stably expressing PD-L1) (human, UniProt Q9NZQ7); experiment: flow cytometry on 293T cells stably expressing PD-L1, percent of cells labelled, anti-hFc secondary
T1 construct: expressed on the surface of stably transfected 293T cells; also called CD274; B7-H1
T1 sequence (Q9NZQ7 19-290 limits assumed): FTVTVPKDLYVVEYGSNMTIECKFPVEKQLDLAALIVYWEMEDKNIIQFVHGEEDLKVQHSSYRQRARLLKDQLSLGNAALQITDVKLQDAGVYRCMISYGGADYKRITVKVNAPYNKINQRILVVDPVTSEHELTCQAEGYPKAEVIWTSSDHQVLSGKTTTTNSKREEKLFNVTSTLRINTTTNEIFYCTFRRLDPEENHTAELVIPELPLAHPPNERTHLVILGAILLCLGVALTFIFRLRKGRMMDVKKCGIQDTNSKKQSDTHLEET

EC50 (read off the curve) [nM]	Binder
~0.1	1D2 (antibody, V domains shown, anti-PD-L1 clone; also called Ab 1D2) VH: QVQLVQSGAEVKKPGSSVKVSCKASGGTFSSYAISWVRQAPGQGLEWMGGIIPIFGTANYAQKFQGRVTITADESTSTAYMELSSLRSEDTAVYYCARDGSGYDSAGMDDWGQGTLVTVSS VL: QPGLTQPPSASGTPGQTVTISCSGSRSNIGSNYVYWYQQFPGTAPKLLIFSNNQRPSGVPDRFSGSKSGTSASLAISGLRSEDEADYYCAVWDDSLSGVVFGGGTKLTVL
0.2 to 0.3	1D4 (antibody, V domains shown, anti-PD-L1 clone; also called Ab 1D4) VH: QVQLVQSGGGVVQPGRSLRLSCAASGFTFSSYAIHWVRQAPGKGLEWITTISYDGSNKYYADSVKGRFTISRDNPKNTLYLQMNSLRAEDTAVYYCARGFGGPDYWGQGTLVTVSS VL: LPVLTQPSSLSASPGASASLTCTLRSGINVGTYRIYWYQQKPGSPPQYLLRYKSDSDKQQGSGVPSRFSGSKDASANAGILLISGLQSEDEADYYCMIWHSSAYVFGTGTKVTVL
~0.05	1G1 (antibody, V domains shown, anti-PD-L1 clone; also called Ab 1G1) VH: EVQLVQSGAEVKKPGSSVRVSCKASGGTFSSYAISWVRQAPGQGLEWMGRIIPILGIANYAQKFQGRVTITADKSTSTAYMELSSLRSEDTAVYYCASGSIVGAAYAFDIWGQGTTVTVSS VL: QSVLTQPPSVSVAPGKAANLNCGGKNIGGRVVHWYQQRPGQAPVLVIYDDTDRPSGIPERFSGSNSGNTATLTITDVEVGDEADYYCQVWDSRSDHPVFGGGTTLTVL
